Experiment [1] addresses T1, human monomeric EGFR (EGFR.mmh) (human, UniProt P00533 25-647).
T1 construct: Soluble monomeric EGFR construct
The experiment can be described thus: SPR 37C, mAb captured by anti-human Fc, EGFR.mmh analyte. Here is the method: (§1) Different concentrations of human monomeric (EGFR.mmh; SEQ ID NO:386) and dimeric (EGFR.mFc; SEQ ID NO:387) proteins were injected over the anti-EGFR monoclonal antibody captured surface at a flow rate of 50 μI/min. Antibody-antigen association was monitored for 4-5 minutes while dissociation of antigen from the captured monoclonal antibody surface was monitored for 10 min. Kinetic association (kₐ) and dissociation (kd) rate constants were determined by processing and fitting the data to a 1:1 binding model using Scrubber 2.0 curve fitting software.

In experiment [2] the target is T2, EGFR on A431 epidermoid carcinoma cells (human, UniProt P00533 25-1210). The experiment is described as follows: cell-based or functional assay.
Experiment [3] addresses T3, human dimeric EGFR (EGFR.mFc) (human).
T3 construct: Soluble dimeric EGFR construct
The experiment is described as follows: SPR 37C, mAb captured by anti-human Fc, EGFR.mFc analyte. Here is the method:
as §1

The target of experiment [4] is T2, EGFR on A431 epidermoid carcinoma cells. The experiment can be described thus: cell-based or functional assay. This is another data set of the same source.

B1: H1H086N (antibody, human IgG1, V domains shown)
VH: EVQLVESGGGLVQPGRSLRLSCAASGFTFDDYAMHWVRQAPGKGLEWVSGINWNSDKIAYADSVKGRFTISRDNAENSLFLQMNSLRPEDTALYYCVKRGDFWTDYYDYWGQGTLVTVSS
VL: DIVMTQSPLSLPVTPGEPASISCRSSQSLLHSNGYNYLDWYLQKPGQSPHLLIYLVSTRASGVPDRFSGSGSGTDFTLKISRVEAEDVGVYYCMQALQTPWTFGQGTKVEIK
notes: Tested in human IgG1 Fc format (H1H); also called H1M086N
Turning to B1, in experiment [1], binding was put at a Kd of 1.31 nM, the koff (commonly the rate constant with which the complex falls apart) stood at 0.000708 s⁻¹, the kon (commonly the rate constant with which the complex forms) stood at 540000 M⁻¹ s⁻¹ and the t1/2 came out at 0.267 h. In experiment [2], the “IC50 of A431 Proliferation” value is 5.46e-10 Molar. In addition, in experiment [3], the Kd (as a rule, the constant that tells how readily two partners part at equilibrium) was 0.00598 nM; the koff was 1.13e-05 s⁻¹; the kon amounted to 1.9e+06 M⁻¹ s⁻¹; the t1/2 came out at 17 h. In addition, in experiment [4], the “ADCC EC50” value is 2.91e-13 Molar and the “Maximum Cell Killing (%)” value came to 25%.

B2: H1H089N (antibody, human IgG1, V domains shown)
VH: EVQLVESGGGLVQPGRSLRLSCAASGFTFDDYAMHWVRQAPGKGLEWVSGINWNSDKIAYADSVKGRFTISRDNAENSLFLQMNSLRPEDTALYYCVKRGDFWTDYYDYWGQGTLVTVSS
VL: DIVMTQSPLSLPVTPGEPASISCRSSQSLLHSNGHNYLDWYLQKPGQSPHLLIYLVSNRASGVPDRFSGSGSGTDFTLKISRVEAEDVGVYYCIQALQTPWTFGQGTKVEIK
notes: Tested in human IgG1 Fc format (H1H); also called H1M089N
Turning to B2, in experiment [1], the Kd worked out at 21.8 nM, the koff came to 0.00683 s⁻¹, the kon was found to be 313000 M⁻¹ s⁻¹ and the t1/2 worked out at 0.0333 h. Besides, in experiment [2], the “IC50 of A431 Proliferation” value turned out to be 2.3e-09 Molar. In experiment [3], the Kd came out at 0.0301 nM, the koff was 4.49e-05 s⁻¹, the kon was 1.49e+06 M⁻¹ s⁻¹ and the t1/2 was 4.28 h. For the same molecule, in experiment [4], the “ADCC EC50” value was 5.83e-12 Molar and the “Maximum Cell Killing (%)” value was determined as 53%.

B3: H1H142P (antibody, human IgG1, V domains shown)
VH: QVQLQESGPGLVKPSQTLSLTCTVSGGSISSGDYYWNWIRQYPGKGLELIGYIYYSGITYYNPSLKSRLTISLDTSKNQFSLKLSSVTAADTAVYYCARDRVELRAFDIWGQGTMVTVSS
VL: DIQMTQSPSSLSASIGDRITISCQASQDINNYLNWYQQKPGKAPKLLIYDASNLETGIPSRFSGSGSGTDFTFTISGLQPEDIATYYCQHYDSLPLTFGQGTRLEIK
notes: Human IgG1 Fc (H1H)
For B3, in experiment [1], the affinity, expressed as Kd, was 4.35 nM; the koff was 0.000689 s⁻¹; the kon turned out to be 158000 M⁻¹ s⁻¹; the t1/2 worked out at 0.283 h. The “IC50 of A431 Proliferation” value in experiment [2] is 5.47e-10 Molar. In experiment [3], this molecule yielded a Kd of 0.0332 nM, a koff of 1.2e-05 s⁻¹, a kon of 361000 M⁻¹ s⁻¹ and a t1/2 of 16.1 h. Further, in experiment [4], the “ADCC EC50” value came to 1.19e-12 Molar and the “Maximum Cell Killing (%)” value came to 34%.

B4: H1H143P (antibody, human IgG1, V domains shown)
VH: QVQLQESGPGLVMPSQTLSLTCTVSGGSINSGDYYWNWIRQHPGKGLEWIGYIYYSEISYHNPSLKSRVTTSIDTSTNQFSLKLSSVTAADTAVYYCARDRVELRAFDIWGQGTMVTVSS
VL: DIQMTQSPSSLSASVGDRVTITCQASQDISNYLNWYQQKPGKAPKLLIYDASNLETGVPSRFSGSGSGTDFTFTISSLQPEDIATYYCQHYDSLPLTFGQGTRLEIK
notes: Human IgG1 Fc (H1H)
In the case of B4, in experiment [1], the Kd is 5.71 nM, the koff came out at 0.000727 s⁻¹, the kon came to 127000 M⁻¹ s⁻¹ and the t1/2 was found to be 0.267 h. Moreover, the “IC50 of A431 Proliferation” value in experiment [2] was determined as 9.97e-11 Molar. Moreover, in experiment [3], the Kd came to 0.0354 nM, the koff is 1.35e-05 s⁻¹, the kon was determined as 381000 M⁻¹ s⁻¹ and the t1/2 was found to be 14.3 h. The “Maximum Cell Killing (%)” value in experiment [4] was determined as 13%.

The values above are taken from patent US20180036405A1 (Regeneron, published 2018).
